Where a chain is given by its changes, count along the chain named. Values joined by “and” are separate entries in the source; they are usually repeats but may differ in a detail not shown here. Equal values may be shown once.
T1: human ADAM8 (human) (UniProt P78325)
T1 sequence: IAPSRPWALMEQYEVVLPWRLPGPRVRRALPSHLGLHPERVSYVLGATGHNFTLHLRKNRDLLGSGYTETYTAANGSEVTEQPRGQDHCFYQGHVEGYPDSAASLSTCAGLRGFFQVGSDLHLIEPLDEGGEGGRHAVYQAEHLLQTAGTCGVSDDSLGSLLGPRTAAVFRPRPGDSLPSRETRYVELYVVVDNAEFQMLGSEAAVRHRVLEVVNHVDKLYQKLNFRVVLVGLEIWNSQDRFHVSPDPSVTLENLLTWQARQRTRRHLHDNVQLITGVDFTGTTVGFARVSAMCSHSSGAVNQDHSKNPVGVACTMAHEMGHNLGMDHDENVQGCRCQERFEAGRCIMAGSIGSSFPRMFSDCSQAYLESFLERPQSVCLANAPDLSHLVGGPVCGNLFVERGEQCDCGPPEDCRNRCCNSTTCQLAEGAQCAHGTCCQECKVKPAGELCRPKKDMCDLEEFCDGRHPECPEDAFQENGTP

B1: ADAM8 prodomain peptide SEQ ID NO: 4 (peptide, not shown: small tags and cut ends)
chain: MIAPSRPWALMEQYEVVLPRRLPGPRVRAALPSHLGLHPERVSYVLGATGHNFTLHLRKNRDLLGSGYTETYTAANGSEVTEQPRGQDHSFYQGHVEGYPDSAASLSTSAGLRGFFQVGSDLHLIEPLDEGGEGGRHAVYQAEHLLQTAGTSGVSDDSLGSLLGPRTAAVFRPRPGDSLPS
B2: SEQ ID NO: 15 (pegylated at C-terminus) (peptide, part only; not given: added cysteine residues and His tag, not shown: small tags and cut ends)
chain, part: B1 chain with A29G
modifications: 5 kDa maleimide PEG on an added cysteine near the C-terminus
B3: SEQ ID NO: 14 (pegylated on 3 cysteines) (peptide, not shown: small tags and cut ends)
chain: B1 chain with A29R, S90C, S109C, S152C
modifications: 2 kDa maleimide PEG on all three cysteines (cysteines 105, 124 and 167 of SEQ ID NO: 1 numbering; positions 90, 109 and 152 of SEQ ID NO: 14)
B4: SEQ ID NO: 17 (Pegylated on N-terminus) (peptide, part only; not given: added cysteine residues and His tag, not shown: small tags and cut ends)
chain, part: B1 chain with R20W, R26K, A29K
modifications: 5 kDa maleimide PEG on an introduced cysteine near the N-terminus
B5: ADAM8 prodomain peptide SEQ ID NO: 14 (peptide, not shown: small tags and cut ends)
chain: B1 chain with A29R, S90C, S109C, S152C
B6: wild type human ADAM8 prodomain peptide SEQ ID NO: 2 (peptide, not shown: small tags and cut ends)
chain: B1 chain with R20W, A29R, S90C, S109C, S152C
B7: ADAM8 prodomain peptide SEQ ID NO: 15 (peptide, not shown: small tags and cut ends)
chain: B1 chain with A29G
B8: ADAM8 prodomain peptide SEQ ID NO: 16 (peptide, not shown: small tags and cut ends)
chain: B1 chain with A29R, S90C, F91L, S109C, S152C
B9: ADAM8 prodomain peptide SEQ ID NO: 17 (peptide, not shown: small tags and cut ends)
chain: B1 chain with R20W, R26K, A29K

Target: T1, human ADAM8 (human)
Assay: cell-based or functional assay

| Binder | IC50 for inhibition of ADAM8 (cleavage of fluorescence energy transfer substrate PEPDAB064 or PEPDAB013) | further results |
| --- | --- | --- |
| B1 |  | percent inhibition of ADAM8 (cleavage of fluorescence energy transfer substrate PEPDAB064 or PEPDAB013) (% inhibition at 5 uM): 40 |
| B2 | 1.8 µM and 3 µM |  |
| B3 | 2.7 µM and 2.3 µM |  |
| B4 | 24 µM |  |
| B5 | 1.4 µM and 2.3 µM |  |
| B6 | 2.8 µM and 2.3 µM |  |
| B7 |  | percent inhibition of ADAM8 (cleavage of fluorescence energy transfer substrate PEPDAB064 or PEPDAB013) (% inhibition at 4.8 uM): 45 |
| B8 | 0.4 µM |  |
| B9 |  | percent inhibition of ADAM8 (cleavage of fluorescence energy transfer substrate PEPDAB064 or PEPDAB013) (% inhibition at 4.8 uM): 51 |

Reference: patent publication US20220213169A1
